Data: patent US20110053268A1, “METHOD FOR DIAGNOSIS OF ABNORMAL IRON METABOLISM USING ACTIVE HEPCIDIN AS INDICATOR” (priority 2006, published 2011)
“Also recorded” adds a separate entry of the source.

Tests used:
[1] = Clearance of serum peptides by hemodialysis (SELDI-TOF-MS before and after hemodialysis); type: in vivo, human; details: hemodialysis patients, serum before vs after hemodialysis
Description: Serum samples were obtained from 40 hemodialysis patients before and after hemodialysis. All patients were receiving hemodialysis treatment three times a week. […] Serum samples were separated by centrifugation (3,000 rpm) and stored at −80° C. until assayed.
SELDI analysis was performed according to the manufacturer's manual, with some modifications. In brief, serum and urine samples were diluted 20-fold and 10-fold, respectively, with binding buffer (phosphate buffered saline, pH 7.4). Using a bioprocessor, 40 μl of diluted samples were applied onto different arrays of an IMAC 30-Cu chip pretreated with 100 mM copper sulfate binding buffer and the chip was incubated at room temperature for 30 min with constant horizontal shaking. For confirmation of the reproducibility, each sample was applied to two separate spots on an IMAC 30-Cu chip. Unbound proteins were removed by washing three times with binding buffer for 5 min. The arrays were rinsed twice with 400 μl of water, were air-dried, and 0.5 μl of alpha-cyano-4-hydroxy-cinnamic acid (CHCA; Ciphergen) in 50% acetonitrile and 0.5% trifluoroacetic acid was added twice onto the surface of the chip. Next, the arrays were analyzed using the Ciphergen ProteinChip® Reader PBS II. The proteins with CHCA were ionized and their molecular masses were determined by TOF analysis. The mass-to-charge ratio (m/z) of each of the proteins/peptides captured on the array surface was determined according to externally calibrated standards: Arg8-vasopressin (1,084.25 Da), somatostatin (1,637.9 Da), dynorphin (2,147.5 Da), bovine insulin beta-chain (3,495.94 Da), human insulin (5,807.65 Da), bovine ubiquitin (8,564.8 Da), and bovine cytochrome C (12,230.9 Da). The mass spectra of the samples were generated using an average of 80 laser shots at a laser intensity of 180 and a detector sensitivity of 10. Synthetic hepcidin-25 (Peptide Institute Inc, Osaka) was used as a marker of 2,789 Da. […]

[2] = molecular target: T1, IL-6 receptor (Homo sapiens, UniProt P08887); experiment: Tocilizumab treatment of two Castleman's disease cases, serum and urine hepcidin monitored by SELDI-TOF-MS; type: in vivo
T1 construct: before and after tocilizumab treatment in two Castleman's disease cases; from tissue; host or cells: patients with Castleman's disease (in vivo treatment)
T1 sequence (P08887 20-468): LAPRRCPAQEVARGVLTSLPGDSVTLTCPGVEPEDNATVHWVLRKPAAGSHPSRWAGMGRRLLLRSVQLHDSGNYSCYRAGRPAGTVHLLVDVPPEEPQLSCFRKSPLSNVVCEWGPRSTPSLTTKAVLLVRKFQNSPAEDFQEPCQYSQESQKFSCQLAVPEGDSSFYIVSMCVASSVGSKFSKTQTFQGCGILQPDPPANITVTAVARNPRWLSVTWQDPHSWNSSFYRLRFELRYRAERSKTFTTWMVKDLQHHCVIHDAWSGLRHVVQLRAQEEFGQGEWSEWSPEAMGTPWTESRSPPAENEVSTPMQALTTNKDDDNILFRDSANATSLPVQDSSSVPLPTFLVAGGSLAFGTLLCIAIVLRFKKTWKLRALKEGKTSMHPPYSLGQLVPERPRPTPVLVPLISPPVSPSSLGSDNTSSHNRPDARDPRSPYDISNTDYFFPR
Description: The present inventor monitored serum and urine hepcidin before and after tocilizumab treatment in two Castleman's disease cases who began treatment with tocilizumab (registered trademark: Actemra), from 7 days before treatment to 14 days after the start of the treatment. The measurement of hepcidin was performed in the manner described in Example 1.

[3] = Intravenous iron administration (iron loading) in a hemodialysis patient, serial serum profiling
[4] = case 1, day 3 after tocilizumab

hepcidin-25 [2,789 m/z]
removal rate by hemodialysis [1]: 46±23% | removal rate by hemodialysis ([1]; listed as hepcidin-25): 46%

hepcidin
half-life of hepcidin in serum ([2]; inferred from the drop in hepcidin after tocilizumab): short

[Fe] [iron]
expression of the serum 2,192 m/z peak (hepcidin-20) ([3]; i.v. iron for eight weeks): increased | intensity of the serum peak at 2,789 m/z (hepcidin-25) ([3]; i.v. iron for eight weeks): increased gradually | serum ferritin level after iron administration ([3]; increased from 11.3 ng/ml, 40 mg iron i.v. twice a week for eight weeks, person on hemodialysis): 273 ng/mL

hepcidin-20 (ICIFCCGCCHRSKCGMCCKT; listed as Homo sapiens) [2,192 m/z]
removal rate by hemodialysis [1]: 45±19%

tocilizumab
serum hepcidin-25 level ([2]; both Castleman's disease cases, within a single day after the first dose of tocilizumab): downregulation; also recorded: drastically reduced | urine level of hepcidin-20 [2, 4]: dramatically reduced | urine level of hepcidin-25 [2, 4]: dramatically reduced | high CRP levels, anemia, and hypoalbuminemia ([2]; cases 1 and 2, up to 14 days after start of treatment): alleviated | serum ferritin level ([2]; cases 1 and 2 after tocilizumab): reduced slowly
